Laboratory results as given in article PMC8170832.

Biological target: endogenous HSF1 (heat shock factor 1), mouse embryonic fibroblasts (mouse (endogenous in MEFs)) (UniProt P38532)
Assay: co-IP

UniProt P38532, sequence (P38532 whole entry): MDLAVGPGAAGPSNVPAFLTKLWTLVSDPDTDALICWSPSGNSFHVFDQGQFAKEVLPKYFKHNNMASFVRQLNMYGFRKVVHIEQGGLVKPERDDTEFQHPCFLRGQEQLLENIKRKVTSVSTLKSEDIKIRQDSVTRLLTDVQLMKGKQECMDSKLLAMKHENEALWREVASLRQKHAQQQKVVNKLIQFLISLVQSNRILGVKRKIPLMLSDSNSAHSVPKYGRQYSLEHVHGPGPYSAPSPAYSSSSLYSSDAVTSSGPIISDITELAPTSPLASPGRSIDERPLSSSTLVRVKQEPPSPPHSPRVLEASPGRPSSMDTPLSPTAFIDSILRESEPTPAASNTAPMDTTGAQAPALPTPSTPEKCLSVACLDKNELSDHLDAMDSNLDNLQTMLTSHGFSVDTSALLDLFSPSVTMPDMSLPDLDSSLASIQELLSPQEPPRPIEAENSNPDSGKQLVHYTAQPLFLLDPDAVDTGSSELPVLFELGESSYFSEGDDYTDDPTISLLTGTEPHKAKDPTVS

Row | percent of total cellular AMPKα depleted by IP of HSF1 [%] | percent of phospho-AMPKα depleted by IP of HSF1 [%] | Substance
1 | 66 | – | endogenous AMPK (AMP-activated protein kinase), mouse embryonic fibroblasts (from UniProt Q5EG47 1-559; Q9R078 1-270; Q91WG5 1-566) (complex)
2 | – | 25 | endogenous phospho-AMPKα (Thr172), mouse embryonic fibroblasts (from UniProt Q5EG47 1-559; Q9R078 1-270; Q91WG5 1-566) (complex)
